# B1: Guanyl-specific ribonuclease T1 wild type, P00651 (protein)
# chain: MMYSKLLTLTTLLLPTALALPSLVERACDYTCGSNCYSSSDVSTAQAAGYQLHEDGETVGSNSYPHKYNNYEGFDFSVSSPYYEWPILSSGDVYSGGSPGADRVVFNENNQLAGVITHTGASGNNFVECT
# Details: Aspergillus oryzae (strain ATCC 42149 / RIB 40), pH 3, 25 °C, Absorbance, glycine-HCl 0.05 M, reversible: yes, whole UniProt chain shown
protein,measurement,setting,value
B1,denaturant m value,"GdnHCl, KCl 0.1-1.0 M",2.83 kcal/mol/M
same,denaturant midpoint (higher = more stable),"GdnHCl, KCl 0.1-1.0 M",1.78 M
same,unfolding free energy,"GdnHCl, KCl 0.1-1.0 M",5.03 kcal/mol
same,denaturant m value,"Urea, KCl 0.10 M",1.98 kcal/mol/M
same,denaturant midpoint (higher = more stable),"Urea, KCl 0.10 M",2.05 M
same,unfolding free energy,"Urea, KCl 0.10 M",4.07 kcal/mol
same,denaturant m value,"Urea, KCl 0.50 M",1.71 kcal/mol/M
same,denaturant midpoint (higher = more stable),"Urea, KCl 0.50 M",2.4 M
same,unfolding free energy,"Urea, KCl 0.50 M",4.1 kcal/mol
same,denaturant m value,"Urea, KCl 1.00 M",1.59 kcal/mol/M
same,denaturant midpoint (higher = more stable),"Urea, KCl 1.00 M",2.82 M
same,unfolding free energy,"Urea, KCl 1.00 M",4.49 kcal/mol
same,denaturant m value,"Urea, KCl 1.25 M",1.65 kcal/mol/M
same,denaturant midpoint (higher = more stable),"Urea, KCl 1.25 M",3.02 M
same,unfolding free energy,"Urea, KCl 1.25 M",4.99 kcal/mol
same,denaturant m value,"Urea, KCl 1.50 M",1.54 kcal/mol/M
same,denaturant midpoint (higher = more stable),"Urea, KCl 1.50 M",3.41 M
same,unfolding free energy,"Urea, KCl 1.50 M",5.26 kcal/mol
